Data reported in the Human Domainome abundance scans (Beltran et al. 2025).

B1: Protein piccolo, residues 1058 to 1114; numbered along this chain, Q9Y6V0 (parent)
chain: TCPLCKTELNIGSKDPPNFNTCTECKNQVCNLCGFNPTPHLTEIQEWLCLNCQTQRA
B2: CD2-associated protein, residues 271 to 331; numbered along this chain, Q9Y5K6 (parent)
chain: KEYCRTLFAYEGTNEDELTFKEGEIIHLISKETGEAGWWRGELNGKEGVFPDNFAVQINEL

Variants of: B1
Experiment: abundance fitness (aPCA) (normalised: wild type 0, dead -1); higher = more abundant; growth selection in yeast, the domain comes from the species named
Conditions: Homo sapiens

Abundance fitness: each site, then its substitutions
C49: V -0.849, W -0.884, Y -0.958
L50: A 0.129, C -0.04, D 0.208, E 0.157, F -0.25, G 0.084, H 0.145, I -0.173, K 0.078, M -0.565, N 0.019, P 0.329, Q 0.15, R 0.182, S 0.141, T 0.208, V 0.102, W -0.215, Y -0.239
N51: A -0.015, D -0.166, E -0.099, F -0.306, G -0.091, H -0.146, I -0.566, K -0.063, M -0.557, P -0.284, S -0.247, V -0.326
C52: A -0.85, D -0.755, E -0.448, F -1.06, G -0.727, H -0.273, K -0.801, M -0.981, N -0.876, P -1.2, Q -0.841, R -0.701, S -0.709, T -0.842, W -1.14, Y -0.841
Q53: A -0.249, C -0.464, D 0.099, E -0.074, F -0.275, G -0.016, I -0.25, K 0.115, L -0.386, M -0.36, N 0.118, R 0.099, S 0.028, T -0.067, V -0.256, W -0.383, Y -0.23
T54: A 0.049, C -0.182, E 0.231, F -0.79, G 0.046, H -0.076, I -0.37, K 0.196, L -0.531, M -0.602, N 0.296, P 0.156, Q 0.214, V -0.198, W -0.441, Y -0.369

Variants of: B2
Experiment: as above
Conditions: Homo sapiens

Abundance fitness of substitutions, site by site:
K1: A -0.529, C -0.629, D -0.364, E -0.083, F -0.337, G -0.223, H -0.489, I -0.245, L -0.296, M -0.154, N -0.384, Q -0.343, R -0.277, S -0.229, T -0.394, V -0.332, W -0.543, Y -0.656
E2: A -0.022, D 0.039, F -0.351, G -0.078, H 0.049, K -0.084, L -0.136, M 0.073, N 0.002, P -0.306, Q -0.05, R -0.245, S -0.128, T -0.121, V -0.222, W -0.525
Y3: A -0.369, D -0.555, E -0.567, F 0.001, G -0.611, H -0.278, K -0.748, L -0.131, M -0.372, N -0.292, P -0.75, Q -0.775, S -0.26, T -0.608, V -0.537, W -0.661
C4: A -0.591, D -1.04, E -1.09, F -0.007, G -0.707, H -1.07, I -0.113, K -0.64, L -0.046, M -0.23, Q -0.9, R -0.62, S -0.791, T -0.714, V -0.354, W -0.301
R5: A -0.426, D -0.764, E -0.154, F -0.487, G -0.868, H -0.461, I -0.527, K 0.182, L -0.383, N -0.601, P -0.978, Q -0.37, S -0.49, T -0.34, V -0.439, W -0.689
T6: A -0.014, C -0.614
